Measurements taken from PMC12527946.
Substitutions are numbered along the chain they refer to. In names and notes the source's numbering stands.

B1: wild-type human clusterin (WT Clu), P10909 K123Q; R127Q; R130Q; R138Q; R282Q; R286Q; R289Q (protein)
chain: MMKTLLLFVGLLLTWESGQVLGDQTVSDNELQEMSNQGSKYVNKEIQNAVNGVKQIKTLIEKTNEERKTLLSNLEEAKKKKEDALNETRESETKLKELPGVCNETMMALWEECKPCLKQTCMQFYAQVCQSGSGLVGQQLEEFLNQSSPFYFWMNGDRIDSLLENDRQQTHMLDVMQDHFSRASSIIDELFQDRFFTREPQDTYHYLPFSLPHRRPHFFFPKSRIVRSLMPFSPYEPLNFHAMFQPFLEMIHEAQQAMDIHFHSPAFQHPPTEFIREGDDDQTVCQEIQHNSTGCLRMKDQCDKCREILSVDCSTNNPSQAKLRRELDESLQVAERLTRKYNELLKSYQWKMLNTSSLLEQLNEQFNWVSRLANLTQGEDQYYLRVTTVASHTSDSDVPSGVTEVVVKLFDSDPITVTVPVEVSRKNPKFMETVAEKALQEYRKKHREE
B2: wild-type human clusterin (WT Clu), P10909 L229S; M230S; F232S; Y235S (protein)
chain: MMKTLLLFVGLLLTWESGQVLGDQTVSDNELQEMSNQGSKYVNKEIQNAVNGVKQIKTLIEKTNEERKTLLSNLEEAKKKKEDALNETRESETKLKELPGVCNETMMALWEECKPCLKQTCMKFYARVCRSGSGLVGRQLEEFLNQSSPFYFWMNGDRIDSLLENDRQQTHMLDVMQDHFSRASSIIDELFQDRFFTREPQDTYHYLPFSLPHRRPHFFFPKSRIVRSSSPSSPSEPLNFHAMFQPFLEMIHEAQQAMDIHFHSPAFQHPPTEFIREGDDDRTVCREIRHNSTGCLRMKDQCDKCREILSVDCSTNNPSQAKLRRELDESLQVAERLTRKYNELLKSYQWKMLNTSSLLEQLNEQFNWVSRLANLTQGEDQYYLRVTTVASHTSDSDVPSGVTEVVVKLFDSDPITVTVPVEVSRKNPKFMETVAEKALQEYRKKHREE
B3: wild-type human clusterin (WT Clu), P10909 V369K; A373T; T376K (protein)
chain: B2 chain with S229L, S230M, S232F, S235Y, V369K, A373T, T376K
B4: wild-type human clusterin (WT Clu), P10909 Y125F; G132E; L135K; R138E; Q139A; E142S (protein)
chain: B2 chain with Y125F, G132E, L135K, R138E, Q139A, E142S, S229L, S230M, S232F, S235Y
B5: wild-type human clusterin (WT Clu), P10909 A108E; L109S; E112K; P115Q; K304A; E307H (protein)
chain: B2 chain with A108E, L109S, E112K, P115Q, S229L, S230M, S232F, S235Y, K304A, E307H
B6: wild-type human clusterin (WT Clu), P10909 Y204S; Y206S; L207S; F209S; L211S; F218S; F219S; F220S; L229S; M230S; F232S; Y235S (protein)
chain: B2 chain with Y204S, Y206S, L207S, F209S, L211S, F218S, F219S, F220S
B7: wild-type human clusterin (WT Clu), P10909 S161R (protein)
chain 1: DQTVSDNELQEMSNQGSKYVNKEIQNAVNGVKQIKTLIEKTNEERKTLLSNLEEAKKKKEDALNETRESETKLKELPGVCNETMMALWEECKPCLKQTCMKFYARVCRSGSGLVGRQLEEFLNQSSPFYFWMNGDRIDRLLENDRQQTHMLDVMQDHFSRASSIIDELFQDRFFTREPQDTYHYLPFSLPHRRPHFFFPKSRIVR
chain 2: SLMPFSPYEPLNFHAMFQPFLEMIHEAQQAMDIHFHSPAFQHPPTEFIREGDDDRTVCREIRHNSTGCLRMKDQCDKCREILSVDCSTNNPSQAKLRRELDESLQVAERLTRKYNELLKSYQWKMLNTSSLLEQLNEQFNWVSRLANLTQGEDQYYLRVTTVASHTSDSDVPSGVTEVVVKLFDSDPITVTVPVEVSRKNPKFMETVAEKALQEYRKKHREE
B8: wild-type human clusterin (WT Clu), P10909 Y204S; Y206S; L207S; F209S; L211S; F218S; F219S; F220S (protein)
chain: MMKTLLLFVGLLLTWESGQVLGDQTVSDNELQEMSNQGSKYVNKEIQNAVNGVKQIKTLIEKTNEERKTLLSNLEEAKKKKEDALNETRESETKLKELPGVCNETMMALWEECKPCLKQTCMKFYARVCRSGSGLVGRQLEEFLNQSSPFYFWMNGDRIDSLLENDRQQTHMLDVMQDHFSRASSIIDELFQDRFFTREPQDTSHSSPSSSPHRRPHSSSPKSRIVRSLMPFSPYEPLNFHAMFQPFLEMIHEAQQAMDIHFHSPAFQHPPTEFIREGDDDRTVCREIRHNSTGCLRMKDQCDKCREILSVDCSTNNPSQAKLRRELDESLQVAERLTRKYNELLKSYQWKMLNTSSLLEQLNEQFNWVSRLANLTQGEDQYYLRVTTVASHTSDSDVPSGVTEVVVKLFDSDPITVTVPVEVSRKNPKFMETVAEKALQEYRKKHREE

Molecular target: VLDLR(28–797)Δ(751–779)-C-tag (VLDLR ectodomain), P98155-2
Experiment: ELISA
Settings: chain shown with the change, VLDLR-ed coated on microtiter plates, background binding to BSA subtracted; for Kd: parent: 79.6 nM; for response (Absorbance (450nm)): fitted binding curve read at Clu 1.0 µM, parent: est. 0.48, read off a plot

| Binder | Kd (Clu 0-2.0 µM) [nM] | Kd (Clu 0-1.0 µM) [nM] | other results |
| --- | --- | --- | --- |
| B1 | 1180 | – | – |
| B2 | 989 | – | – |
| B3 | – | 109 | – |
| B4 | 1190 | – | – |
| B5 | – | 137 | – |
| B6 | – | – | response (Absorbance (450nm)): 0.055 |
| B7 | – | 376 | – |
| B8 | – | – | response (Absorbance (450nm)): 0.16 |
